The source of these data is patent US20260078197A1.

For the experiment, the target named is Macaca fascicularis (crab-eating macaque) TFR1 expressed on CHO-S cells (Macaca fascicularis (crab-eating macaque)). Put plainly: flow cytometry on CHO-S-fasTFR1 cells; anti-hIgG-Fc Alexa Fluor 647 secondary. A general note: Flow cytometry measures light scatter and fluorescence of single cells or particles in a stream.
Chain of Macaca fascicularis (crab-eating macaque) TFR1 expressed on CHO-S cells (Macaca fascicularis (crab-eating macaque)) (chain, as listed by the source limits assumed): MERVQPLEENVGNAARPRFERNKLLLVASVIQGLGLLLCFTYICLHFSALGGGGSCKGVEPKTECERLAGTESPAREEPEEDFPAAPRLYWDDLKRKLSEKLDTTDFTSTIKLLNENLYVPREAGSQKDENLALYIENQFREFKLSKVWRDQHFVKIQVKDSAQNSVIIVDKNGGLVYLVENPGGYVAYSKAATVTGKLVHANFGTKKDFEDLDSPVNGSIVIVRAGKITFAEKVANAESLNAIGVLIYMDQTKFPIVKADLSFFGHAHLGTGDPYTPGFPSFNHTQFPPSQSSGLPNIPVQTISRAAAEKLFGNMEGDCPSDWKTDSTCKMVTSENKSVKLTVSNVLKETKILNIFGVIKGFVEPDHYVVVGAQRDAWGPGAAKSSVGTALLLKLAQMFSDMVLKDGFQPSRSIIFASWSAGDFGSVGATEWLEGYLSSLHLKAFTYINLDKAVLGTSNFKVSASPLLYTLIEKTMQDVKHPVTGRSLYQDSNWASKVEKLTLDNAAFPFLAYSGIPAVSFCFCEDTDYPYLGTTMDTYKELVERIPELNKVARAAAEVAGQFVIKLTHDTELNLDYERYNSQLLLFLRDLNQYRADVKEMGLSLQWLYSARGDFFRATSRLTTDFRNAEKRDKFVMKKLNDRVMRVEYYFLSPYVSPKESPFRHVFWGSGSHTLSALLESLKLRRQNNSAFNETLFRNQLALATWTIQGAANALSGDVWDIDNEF

B1: 24C9 (antibody, human IgG1, V domains shown)
VH: EVQLVQSGGGVVQPGRSLRLSCAASGFTLSSYGMYWVRQAPGKGREWVAFIRFDESKKYYADSVKGRFTISRDNSKNTLYLQMNSLRAEDTAVYYCARDGEGGYCTNGVCHGLDVWGQGTTVTVSS
Regarding B1, the Percentage of Positive Cells worked out at 0.35%.
